These results are taken from PMC4546403.

Sequences and labels used below:
B1: Drosophila Smo (dSmo): dSmoNQ5 (protein)
parent chain: MQYLNFPRMPNIMMFLEVAILCLWVVADASASSAKFGSTTPASAQQSDVELEPINGTLNYRLYAKKGRDDKPWFDGLDSRHIQCVRRARCYPTSNATNTCFGSKLPYELSSLDLTDFHTEKELNDKLNDYYALKHVPKCWAAIQPFLCAVFKPKCEKINGEDMVYLPSYEMCRITMEPCRILYNTTFFPKFLRCNETLFPTKCTNGARGMKFNGTGQCLSPLVPTDTSASYYPGIEGCGVRCKDPLYTDDEHRQIHKLIGWAGSICLLSNLFVVSTFFIDWKNANKYPAVIVFYINLCFLIACVGWLLQFTSGSREDIVCRKDGTLRHSEPTAGENLSCIVIFVLVYYFLTAGMVWFVFLTYAWHWRAMGHVQDRIDKKGSYFHLVAWSLPLVLTITTMAFSEVDGNSIVGICFVGYINHSMRAGLLLGPLCGVILIGGYFITRGMVMLFGLKHFANDIKSTSASNKIHLIIMRMGVCALLTLVFILVAIACHVTEFRHADEWAQSFRQFIICKISSVFEEKSSCRIENRPSVGVLQLHLLCLFSSGIVMSTWCWTPSSIETWKRYIRKKCGKEVVEEVKMPKHKVIAQTWAKRKDFEDKGRLSITLYNTHTDPVGLNFDVNDLNSSETNDISSTWAAYLPQCVKRRMALTGAATGNSSSHGPRKNSLDSEISVSVRHVSVESRRNSVDSQVSVKIAEMKTKVASRSRGKHGGSSSNRRTQRRRDYIAAATGKSSRRRESSTSVESQVIALKKTTYPNASHKVGVFAHHSSKKQHNYTSSMKRRTANAGLDPSILNEFLQKNGDFIFPFLQNQDMSSSSEEDNSRASQKIQDLNVVVKQQEISEDDHDGIKIEELPNSKQVALENFLKNIKKSNESNSNRHSRNSARSQSKKSQKRHLKNPAADLDFRKDCVKYRSNDSLSCSSEELDVALDVGSLLNSSFSGISMGKPHSRNSKTSCDVGIQANPFELVPSYGEDELQQAMRLLNAASRQRTEAANEDFGGTELQGLLGHSHRHQREPTFMSESDKLKMLLLPSK
B2: Drosophila Smo (dSmo): N95Q (protein)
parent chain: B1 parent chain
B3: Drosophila Smo (dSmo): N95Q,N336Q (protein)
parent chain: B1 parent chain
B4: Drosophila Smo (dSmo): N213Q,N336Q (protein)
parent chain: B1 parent chain
B5: Drosophila Smo (dSmo): N213Q (protein)
parent chain: B1 parent chain
B6: Drosophila Smo (dSmo): N195Q,N336Q (protein)
parent chain: B1 parent chain
B7: Drosophila Smo (dSmo): N336Q (protein)
parent chain: B1 parent chain
B8: Drosophila Smo (dSmo): N184Q (protein)
parent chain: B1 parent chain
B9: Drosophila Smo (dSmo): N184Q,N336Q (protein)
parent chain: B1 parent chain
B10: Drosophila Smo (dSmo): N195Q (protein)
parent chain: B1 parent chain
B11: Drosophila Smo (dSmo): dSmoN336Q (protein)
parent chain: B1 parent chain
B12: Drosophila Smo (dSmo): dSmoN213Q,N336Q (protein)
parent chain: B1 parent chain

One data set is described as follows: immunofluorescence, Hh-induced plasma membrane vs ER marker, Cl8. The note with it: glycan lost; control: wild type dSmo.
On to B1, for which the localisation_or_trafficking result is recorded as “abolishes”.

Turning to B2, the localisation_or_trafficking result is given as “no change”.

Take B3: the localisation_or_trafficking entry is reported as “decreases”.

For the protein B4, the localisation_or_trafficking entry is recorded as “decreases”.

In the case of B5, the localisation_or_trafficking entry is listed as “no change”.

Take B6: the localisation_or_trafficking result is listed as “decreases”.

As for B7, the localisation_or_trafficking result is reported as “abolishes”.

As for B8, the localisation_or_trafficking entry was “no change”.

B9: the localisation_or_trafficking result is recorded as “decreases”.

Turning to B10, the localisation_or_trafficking entry was “no change”.

A further data set can be described thus: biotin-maleimide free-thiol labelling, NeutrAvidin capture (disulfide integrity). The note with it: glycan lost; control: wild type dSmo.
As to B4, the stability_or_folding entry is “decreases”.

For B7, the stability_or_folding result is recorded as “decreases”.

A short description of another data set: western blot of Cl8 cell lysates. The following applies: glycan lost; control: wild type dSmo.
Consider B1, for which the expression_or_secretion result is “increases”.

Turning to B11, the expression_or_secretion entry is listed as “increases”.

The nature of the next data set: cycloheximide chase, Cl8 cells, densitometry. The note with it: glycan lost; control: wild type dSmo.
As to B1, the “degradation_or_half_life, half_life” value is on record as “increases, ~4 vs ~1”.

Another data set is described as follows: western blot of wing imaginal disc lysates. The note with it: glycan lost; control: wild type dSmo transgene.
For the protein B1, the expression_or_secretion entry is “no change”.

Consider B12, for which the expression_or_secretion result is recorded as “increases”.

The next data set is described as follows: EndoH-resistant post-ER vs EndoH-sensitive ER fraction, western. The following applies: glycan lost; control: wild type dSmo.
Consider B4, for which the localisation_or_trafficking result is recorded as “decreases”.

As to B5, the localisation_or_trafficking result was “no change”.

For B7, the localisation_or_trafficking entry is given as “decreases”.
